Experimental data reported in patent publication US20040141968A1 (published 2004).

Key:
[1] = target: T1, HSV-1 glycoprotein B, soluble (HSV-1, UniProt P10211 31-730); test: SPR; DC-SIGN CRD injected over immobilised HSV-1 gB
T1 construct: also called HSV-1 gB; gB HSV

HIV-1 gp120 (MN isolate) [2] = target: T2, HIV-1 gp120 (MN isolate) (HIV-1 (MN isolate), UniProt P05877 32-513, biotinylated when used as the labelled ligand on cells; unlabelled as competitor and on the SPR chip); test: SPR (Biacore); DC-SIGN CRD injected over immobilised HIV-1 gp120; from koff/kon
T2 construct: domain: gp120; Unlabelled gp120 came from the NIBSC repository; also called biotinylated HIV-1 gp120; HIV-1 Env glycoprotein 120

HIV-1 gp120 (MN isolate) [3] = target: T2, HIV-1 gp120 (MN isolate); test: SPR (Biacore); DC-SIGN CRD injected over immobilised HIV-1 gp120; Langmuir fit, average
[4] = target: T3, biotinylated Bovine Serum Albumine (bovine, UniProt P02769 25-607); test: flow cytometry; biotinylated BSA on HEK 293T cells transfected with DC-SIGN, PE-streptavidin
T3 construct: also called BSA; biotinylated-BSA

HIV-1 gp120 (MN isolate) [5] = target: T2, HIV-1 gp120 (MN isolate); test: flow cytometry; biotinylated protein on transfected HEK 293T cells, PE-streptavidin
[6] = target: T3, biotinylated Bovine Serum Albumine; test: flow cytometry; biotinylated BSA on HEK 293T cells transfected with DC-SIGNR, PE-streptavidin

T3 sequence (P02769 25-607 limits assumed): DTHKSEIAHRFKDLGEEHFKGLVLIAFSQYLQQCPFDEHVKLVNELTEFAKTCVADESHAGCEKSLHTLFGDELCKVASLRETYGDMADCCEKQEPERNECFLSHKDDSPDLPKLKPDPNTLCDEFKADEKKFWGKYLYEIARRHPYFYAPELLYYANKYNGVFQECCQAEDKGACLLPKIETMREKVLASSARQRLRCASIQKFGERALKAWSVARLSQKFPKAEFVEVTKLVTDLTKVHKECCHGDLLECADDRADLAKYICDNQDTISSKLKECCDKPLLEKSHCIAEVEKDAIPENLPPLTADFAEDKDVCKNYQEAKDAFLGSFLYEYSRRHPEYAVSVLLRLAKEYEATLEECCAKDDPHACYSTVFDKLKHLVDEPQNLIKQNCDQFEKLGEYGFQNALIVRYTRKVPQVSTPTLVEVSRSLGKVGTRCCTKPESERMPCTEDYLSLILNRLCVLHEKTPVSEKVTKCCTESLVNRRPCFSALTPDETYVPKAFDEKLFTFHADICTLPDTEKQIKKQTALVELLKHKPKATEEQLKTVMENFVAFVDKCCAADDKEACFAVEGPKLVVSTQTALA

| Binder | binding result [1] | Kd (HIV-1 gp120 (MN isolate) [2]) | koff (HIV-1 gp120 (MN isolate) [3]) | kon (HIV-1 gp120 (MN isolate) [3]) | binding result [4] | binding result (HIV-1 gp120 (MN isolate) [5]) | binding result [6] |
| --- | --- | --- | --- | --- | --- | --- | --- |
| recombinant soluble CRD of DC-SIGN (amino acids 254-404) (receptor, range 254-404; Purified on Ni-NTA and mannose-agarose; also called DC-SIGN CRD; recombinant soluble CRD domain of DC-SIGN) HPCPWEWTFFQGNCYFMSNSQRNWHDSITACKEVGAQLVVIKSAEEQNFLQLQSSRSNRFTWMGLSDLNQEGTWQWVDGSPLLPSFKQYWNRGEPNNVGEEDCAEFSGNGWNDDKCNLAKFWICKKSAASCSRDEEQFLSPAPATPNPPPA | no binding (tested: 0.13 to 1 µM) | 300 nM | 0.00101 s⁻¹ | 3330 M⁻¹ s⁻¹ | – | – | – |
| human DC-SIGN (DC-Specific ICAM-Grabbing Nonintegrin) expressed at the cell surface (receptor, UniProt Q9NNX6 1-404, looked up, whole, on cells; On transduced THP-1, HeLa and HEK 293T cells, and naturally on monocyte-derived dendritic cells; For HEK 293T the cDNA was in pcDNA3 myc-His (version A); also called CD209; DC-SIGN^+ THP-1 cells) MSDSKEPRLQQLGLLEEEQLRGLGFRQTRGYKSLAGCLGHGPLVLQLLSFTLLAGLLVQVSKVPSSISQEQSRQDAIYQNLTQLKAAVGELSEKSKLQEIYQELTQLKAAVGELPEKSKLQEIYQELTRLKAAVGELPEKSKLQEIYQELTWLKAAVGELPEKSKMQEIYQELTRLKAAVGELPEKSKQQEIYQELTRLKAAVGELPEKSKQQEIYQELTRLKAAVGELPEKSKQQEIYQELTQLKAAVERLCHPCPWEWTFFQGNCYFMSNSQRNWHDSITACKEVGAQLVVIKSAEEQNFLQLQSSRSNRFTWMGLSDLNQEGTWQWVDGSPLLPSFKQYWNRGEPNNVGEEDCAEFSGNGWNDDKCNLAKFWICKKSAASCSRDEEQFLSPAPATPNPPPA | – | – | – | – | no binding | binds | – |
| DC-SIGNR expressed on transiently transfected HEK 293T cells (receptor, human, UniProt Q9H2X3 1-399, looked up, whole, on cells) MSDSKEPRVQQLGLLEEDPTTSGIRLFPRDFQFQQIHGHKSSTGCLGHGALVLQLLSFMLLAGVLVAILVQVSKVPSSLSQEQSEQDAIYQNLTQLKAAVGELSEKSKLQEIYQELTQLKAAVGELPEKSKLQEIYQELTRLKAAVGELPEKSKLQEIYQELTRLKAAVGELPEKSKLQEIYQELTRLKAAVGELPEKSKLQEIYQELTELKAAVGELPEKSKLQEIYQELTQLKAAVGELPDQSKQQQIYQELTDLKTAFERLCRHCPKDWTFFQGNCYFMSNSQRNWHDSVTACQEVRAQLVVIKTAEEQNFLQLQTSRSNRFSWMGLSDLNQEGTWQWVDGSPLSPSFQRYWNSGEPNNSGNEDCAEFSGSGWNDNRCDVDNYWICKKPAACFRDE | – | – | – | – | – | binds | no binding |
